Tests used:
Experiment in all cases: NMR titration
[1] = molecular target: cytoplasmic tail of human integrin β1 (aa758-798) (human) (UniProt P05556)
[2] = molecular target: cytoplasmic tail of human integrin β3 (aa748-788) (human) (UniProt P05106)
[3] = molecular target: paxillin LIM2/3 tandem domain (aa380-499) (human) (UniProt P49023)

Sequence of UniProt P05556 (P05556 758-798): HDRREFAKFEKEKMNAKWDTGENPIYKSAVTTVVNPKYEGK

Kd [1] [µM]	Kd [2] [µM]	Kd [3] [µM]	Substance
52	528		paxillin LIM2/3 tandem domain (aa380-499) (from UniProt P49023-2 380-499) (domain or fragment)
		532	cytoplasmic tail of human integrin β3 (aa748-788) (from UniProt P05106 748-788) (domain or fragment)

Reference: publication doi:10.1101/2023.01.26.525744
